Data as given in patent US8287851B2, “Use of interleukin 17E for the treatment of cancer” (Lorus Therapeutics Inc., priority 2005, dated 2012).

Columns and labels:
[1] = system: IkappaB alpha (NF-kappaB pathway); assay: NF-kappaB pathway activation: IkappaB alpha phosphorylation in WEHI-231 cells; format: cell-based; settings: 0.7 μg per 5×10^6 WEHI-231 cells, 0, 2, 5 minutes
Experimental: The ability of both human and murine interleukin 17E to activate proteins in the Nuclear Factor-kappa B (NF-kappaB) pathway was examined using the B cell lymphoma cell line WEHI-231. […] Activation of the NK-kappaB pathway was assessed by increased phosphorylation of the protein IkappaB alpha. […] The activation of NF-kappa B is associated with the phosphorylation of IkappaB alpha in response to certain stimuli.
A total 5×10^6 cells per sample were stimulated with 0.7 μg of either human IL-17E (hIL-17E) or murine IL-17E (mIL-17E) at 37° C. Cells were lysed at time points t=0, 2, and 5 minutes in lysis buffer for 30 minutes on ice, followed by centrifugation for 10 minutes. Samples containing approximately 40 μg of protein were separated by SDS-PAGE, followed by transfer to membranes for Western blotting.
Blots were incubated with rabbit anti-phospho-IkappaB-alpha antibodies, followed by horesradish peroxidase (HRP)-conjugated anti-rabbit antibodies. Blots were exposed to autoradiography film and developed to detect phosphorylated IkB (at approximately 41 kD) by chemiluminescence.
To assess equivalence in protein loading among lanes in both experiments, blots were stripped of antibodies and incubated with mouse anti-GAPDH antibodies and HRP-conjugated anti-mouse antibodies, followed by chemiluminescence-based detection.

splenic B cells = assay: Splenic B cell numbers and activation in C8161 tumour bearing mice (flow cytometry); format: in vivo, CD-1 nude mice; settings: C8161-engrafted mice
Experimental: The increase in B cells was examined in BD-BRM-treated CD-1 nude mice. Briefly, the mice with human melanoma xenografts were treated for 4 weeks with either BD-BRM or PBS, as described in the preceding examples. Splenocytes were examined by flow cytometry for B cells using anti-IgM antibodies.
Antibodies fluorescein isothiocyanate (FITC)-anti-mouse IgM (eB121-15F9; IgG2a), phycoerythrin (PE) anti-mouse CD86 (GL1; IgG2a) and PE anti-mouse CD80 (16-10A1; hamster IgG) were purchased from eBioscience (San Diego, Calif.).
Flow cytometry was performed as described above. Briefly, splenocytes were isolated individually from CD1-nude C8161 tumour bearing mice treated 4 weeks with BD-BRM or PBS. Red blood cells were removed, followed by surface staining with (A) anti-IgM antibody-FITC or (B) anti-IgM-FITC and anti-CD80-PE+anti-CD86-PE by flow cytometry.
The effect of interleukin 17E on increased percentage of splenic eosinophils and B cells and the proportion of activated splenic B cells was examined. CD1-nude mice engrafted with C8161 human melanoma cells were treated with either PBS, murine IL-17E, or human IL-17E as described previously. At the endpoint of the experiment, spleens were isolated from treated mice, stained with markers specific for eosinophils (CCR3+), B cells (either IgM+ or CD19+), and B cell activation (CD-80+, CD86+), and examined by flow cytometry. Flow cytometry was performed as described in Example 4 above.
The percentage of eosinophils was determined by surface staining the granulocyte-gated population with phycoerythrin (PE)-conjugated anti-mouse CCR3. The percentage of B cells in the spleen was examined by surface staining with phycoerythrin (PE)-conjugated anti-mouse CD19. The proportion of activated splenic B cells was determined by staining with FITC-conjugated anti-mouse IgM together with PE-conjugated anti-mouse CD80 and PE-conjugated anti-mouse CD86. Statistical analysis was performed to compare eosinophil and B cell numbers/activation. P values <0.01 were considered to be significant.
In order to confirm that the effect of BD-BRM on splenic B cells as described in Example 5 is due to interleukin 17E activity, the effect of interleukin 17E on numbers and activation status of splenic B cells was examined. CD1-nude mice engrafted with C8161 human melanoma cells were treated with either PBS or murine IL-17E as described previously. At the endpoint of the experiment, spleens were isolated from treated mice, stained with markers specific for B cells (IgM+), and B cell activation (CD-80+, CD86+), and examined by flow cytometry. Flow cytometry was performed as described in Example 4 above.
Splenocytes were analyzed for the percentage of B cells by surface staining with FITC-conjugated anti-mouse IgM antibodies. Activated B cells were determined by surface staining with FITC-conjugated-anti-mouse IgM antibodies, and PE-conjugated-anti-mouse CD80 and PE-conjugated-anti-mouse CD86. Statistical analysis was performed to compare B cell numbers/activation. P values <0.01 were considered to be significant.

murine IL-17E receptor = biological target: T1, murine IL-17E receptor (Mus musculus, UniProt Q9JIP3); assay: FACS binding to IL-17E receptor on pre-B cell line 70Z/3; settings: 1 μg/10^6 cells, 30 minutes at 4° C.
T1 construct: murine IL-17E receptor present on the pre-B cell line 70Z/3; endogenous in cells; host or cells: murine pre-B cell line 70Z/3
T1 sequence (Q9JIP3 18-499): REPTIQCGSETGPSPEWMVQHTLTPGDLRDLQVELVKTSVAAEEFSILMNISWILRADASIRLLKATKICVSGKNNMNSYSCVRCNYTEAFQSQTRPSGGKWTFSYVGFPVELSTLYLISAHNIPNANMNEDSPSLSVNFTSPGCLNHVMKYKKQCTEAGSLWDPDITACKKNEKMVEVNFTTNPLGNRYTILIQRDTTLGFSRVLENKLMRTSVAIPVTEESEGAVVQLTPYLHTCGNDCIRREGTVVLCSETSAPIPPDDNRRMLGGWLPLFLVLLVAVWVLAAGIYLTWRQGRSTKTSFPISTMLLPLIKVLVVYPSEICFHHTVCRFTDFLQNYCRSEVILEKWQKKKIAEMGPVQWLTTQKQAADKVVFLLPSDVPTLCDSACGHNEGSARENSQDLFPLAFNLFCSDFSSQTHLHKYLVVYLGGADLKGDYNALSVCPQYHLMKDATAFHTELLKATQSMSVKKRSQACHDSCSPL
Experimental: The ability of human and murine interleukin 17E to bind to the IL-17E receptor was examined using the murine pre-B cell line 70Z/3 (Paige, C. J., et al. (1981) Nature 292:631-3).
1×10^6 70Z/3 cells/sample were incubated with either murine or human IL-17E (1 μg/10^6 cells) for 30 minutes at 4° C. After washing twice, cells that had been incubated with murine IL-17E were incubated with biotin-conjugated goat anti-mouse IL17E and phycoerythrin (PE)-Cy5.5-conjugated streptavidin. Cells that had been incubated with human IL-17E were incubated with biotin-conjugated goat anti-human IL17E-biotin and phycoerythrin (PE)-Cy5.5-conjugated streptavidin. As negative controls, cells were stained with antibodies as described without preincubation with human or murine IL-17E. Samples were then fixed with 0.5% paraformaldehyde prior to FACS analysis.

Row | Molecule | levels of phosphorylated IkappaB alpha (p-IkB-α) [1] | percentage of splenic B cells (CD19+) as compared to PBS (splenic B cells; Example 21) | proportion of activated B cells (IgM, CD80, CD86) in the spleen as compared to PBS (splenic B cells; Example 21) | percentage of splenic B cells (IgM+) as compared to PBS (splenic B cells; Example 22) | proportion of activated B cells (IgM, CD80, CD86) in the spleen as compared to PBS (splenic B cells; Example 22) | binding to murine IL-17E receptor on 70Z/3 cells (FACS) (murine IL-17E receptor)
1 | murine IL-17E: Murine IL-17E from R&D Systems; predominant form starting at Val 17 of GenBank NP 542767 (protein) VSLRIQEGCSHLPSCCPSKEQEPPEEWLKWSSASVSPPEPLSHTHHAESCRASKDGPLNSRAISPWSYELDRDLNRVPQDLYHARCLCPHCVSLQTGSHMDPLGNSVPLYHNQTVFYRRPCHGEEGTHRRYCLERRLYRVSLACVCVRPRVMA | increased | significantly increased | significantly increased | significantly increased | significantly increased | bound
2 | human IL-17E: Recombinant human IL-17E from PeproTech; two 145 amino acid chains, predominant form starting at Tyr 33 of GenBank AAG40848 (protein, listed as Homo sapiens) YSHWPSCCPSKGQDTSEELLRWSTVPVPPLEPARPNRHPESCRASEDGPLNSRAISPWRYELDRDLNRLPQDLYHARCLCPHCVSLQTGSHMDPRGNSELLYHNQTVFYRRPCHGEKGTHKGYCLERRLYRVSLACVCVRPRVMG | increased | significantly increased | significantly increased | – | – | bound
